B1: CD3ε(1-27)-FURINcsV1-aCD3-aHER2-Xbody (bispecific antibody)
chain 1: not shown
chain 2: QDGNEEMGGITQTPYKVSISGTTVILTGGGGSGGGGSGGGGSRRRRREVQLVESGGGLVQPGGSLKLSCAASGFTFNSYAMNWVRQAPGKGLEWVARIRSKYNNYATYYADSVKGRFTISRDDSKNTAYLQMNNLKTEDTAVYYCVRHGNFGNSYVSWWAYWGQGTLVTVSSGGGGSGGGGSELVMTQTPSSLSASLGDRVTISCRASQDISNYLNWYQQKPDGTVKLLIYYTSRLHSGVPSRFSGSGSGTDYSLTISNLEQEDIATYFCQQGNTLPLTFGAGTKLEIKASTKGPSVFPLAPCSRSTSESTAALGCLVKDYFPEPVTVSWNSGALTSGVHTFPAVLQSSGLYSLSSVVTVPSSNFGTQTYTCNVDHKPSNTKVDKTVGGGGSAAAEPKSSDKTHTCPPCPAPEAAGGPSVFLFPPKPKDTLMISRTPEVTCVVVDVSHEDPEVKFNWYVDGVEVHNAKTKPREEQYNSTYRVVSVLTVLHQDWLNGKEYKCKVSNKALPAPIEKTISKAKGQPREPQVYTLPPSREEMTKNQVSLTCLVKGFYPSDIAVEWESNGQPENNYDTTPPVLDSDGSFFLYSDLTVDKSRWQQGNVFSCSVMHEALHNHYTQKSLSLSPGK
B2: CD3ε(1-27)-FURINcsV2-aCD3-aHER2-Xbody (bispecific antibody)
chain 1: not shown
chain 2: QDGNEEMGGITQTPYKVSISGTTVILTGGGGSGGGGSGGGGSGQSSRHRRALEVQLVESGGGLVQPGGSLKLSCAASGFTFNSYAMNWVRQAPGKGLEWVARIRSKYNNYATYYADSVKGRFTISRDDSKNTAYLQMNNLKTEDTAVYYCVRHGNFGNSYVSWWAYWGQGTLVTVSSGGGGSGGGGSELVMTQTPSSLSASLGDRVTISCRASQDISNYLNWYQQKPDGTVKLLIYYTSRLHSGVPSRFSGSGSGTDYSLTISNLEQEDIATYFCQQGNTLPLTFGAGTKLEIKASTKGPSVFPLAPCSRSTSESTAALGCLVKDYFPEPVTVSWNSGALTSGVHTFPAVLQSSGLYSLSSVVTVPSSNFGTQTYTCNVDHKPSNTKVDKTVGGGGSAAAEPKSSDKTHTCPPCPAPEAAGGPSVFLFPPKPKDTLMISRTPEVTCVVVDVSHEDPEVKFNWYVDGVEVHNAKTKPREEQYNSTYRVVSVLTVLHQDWLNGKEYKCKVSNKALPAPIEKTISKAKGQPREPQVYTLPPSREEMTKNQVSLTCLVKGFYPSDIAVEWESNGQPENNYDTTPPVLDSDGSFFLYSDLTVDKSRWQQGNVFSCSVMHEALHNHYTQKSLSLSPGK
B3: CD3ε(1-27)-MMP-2csV1-aCD3-aHER2-Xbody, digested with MMP-2 (bispecific antibody)
chain 1: not shown
chain 2: IAGQEVQLVESGGGLVQPGGSLKLSCAASGFTFNSYAMNWVRQAPGKGLEWVARIRSKYNNYATYYADSVKGRFTISRDDSKNTAYLQMNNLKTEDTAVYYCVRHGNFGNSYVSWWAYWGQGTLVTVSSGGGGSGGGGSELVMTQTPSSLSASLGDRVTISCRASQDISNYLNWYQQKPDGTVKLLIYYTSRLHSGVPSRFSGSGSGTDYSLTISNLEQEDIATYFCQQGNTLPLTFGAGTKLEIKASTKGPSVFPLAPCSRSTSESTAALGCLVKDYFPEPVTVSWNSGALTSGVHTFPAVLQSSGLYSLSSVVTVPSSNFGTQTYTCNVDHKPSNTKVDKTVGGGGSAAAEPKSSDKTHTCPPCPAPEAAGGPSVFLFPPKPKDTLMISRTPEVTCVVVDVSHEDPEVKFNWYVDGVEVHNAKTKPREEQYNSTYRVVSVLTVLHQDWLNGKEYKCKVSNKALPAPIEKTISKAKGQPREPQVYTLPPSREEMTKNQVSLTCLVKGFYPSDIAVEWESNGQPENNYDTTPPVLDSDGSFFLYSDLTVDKSRWQQGNVFSCSVMHEALHNHYTQKSLSLSPGK
B4: CD3ε(1-27)-aCD3-aHER2-BiFc (bispecific antibody)
chain 1: not shown
chain 2: QDGNEEMGGITQTPYKVSISGTTVILTGGGGSGGGGSGGGGSAAAEPKSSDKTHTCPPCPAPEAAGGPSVFLFPPKPKDTLMISRTPEVTCVVVDVSHEDPEVKFNWYVDGVEVHNAKTKPREEQYNSTYRVVSVLTVLHQDWLNGKEYKCKVSNKALPAPIEKTISKAKGQPREPQVYTLPPSREEMTKNQVSLTCLVKGFYPSDIAVEWESNGQPENNYDTTPPVLDSDGSFFLYSDLTVDKSRWQQGNVFSCSVMHEALHNHYTQKSLSLSPGK
notes: Non-cleavable linker between the CD3ε(1-27) fragment and the Fc
B5: CD3ε(1-27)-MMP-2cs-aCD3-aHER2-BiFc (bispecific antibody)
chain 1: not shown
chain 2: QDGNEEMGGITQTPYKVSISGTTVILTGPLGIAGQAAAEPKSSDKTHTCPPCPAPEAAGGPSVFLFPPKPKDTLMISRTPEVTCVVVDVSHEDPEVKFNWYVDGVEVHNAKTKPREEQYNSTYRVVSVLTVLHQDWLNGKEYKCKVSNKALPAPIEKTISKAKGQPREPQVYTLPPSREEMTKNQVSLTCLVKGFYPSDIAVEWESNGQPENNYDTTPPVLDSDGSFFLYSDLTVDKSRWQQGNVFSCSVMHEALHNHYTQKSLSLSPGK
notes: Tested undigested, with the MMP2 cleavage site intact; also called CD3ε(1-27)-MMP-cs-aCD3-aHER2-BiFc
B6: CD3ε(1-27)-MMP-2csV1-aCD3-aHER2-Xbody (bispecific antibody)
chain 1: not shown
chain 2: QDGNEEMGGITQTPYKVSISGTTVILTGGGGSGGGGSGGGGSGPLGIAGQEVQLVESGGGLVQPGGSLKLSCAASGFTFNSYAMNWVRQAPGKGLEWVARIRSKYNNYATYYADSVKGRFTISRDDSKNTAYLQMNNLKTEDTAVYYCVRHGNFGNSYVSWWAYWGQGTLVTVSSGGGGSGGGGSELVMTQTPSSLSASLGDRVTISCRASQDISNYLNWYQQKPDGTVKLLIYYTSRLHSGVPSRFSGSGSGTDYSLTISNLEQEDIATYFCQQGNTLPLTFGAGTKLEIKASTKGPSVFPLAPCSRSTSESTAALGCLVKDYFPEPVTVSWNSGALTSGVHTFPAVLQSSGLYSLSSVVTVPSSNFGTQTYTCNVDHKPSNTKVDKTVGGGGSAAAEPKSSDKTHTCPPCPAPEAAGGPSVFLFPPKPKDTLMISRTPEVTCVVVDVSHEDPEVKFNWYVDGVEVHNAKTKPREEQYNSTYRVVSVLTVLHQDWLNGKEYKCKVSNKALPAPIEKTISKAKGQPREPQVYTLPPSREEMTKNQVSLTCLVKGFYPSDIAVEWESNGQPENNYDTTPPVLDSDGSFFLYSDLTVDKSRWQQGNVFSCSVMHEALHNHYTQKSLSLSPGK

How the values were obtained:
HER2 = HER2 (human, UniProt P04626 23-1255); test: cell-based or functional assay
human CD3ε = target: T1, human CD3ε (human, UniProt P07766 22-207); test: FACS on T cells
T1 construct: On T cells CD3ε is part of the TCR-CD3 complex; also called T cells

Binder	EC50 Cytolysis (ng/mL), +MMP2; TDCC of SKOV-3 cells with pan T cells (HER2) [ng/mL]	EC50 Cytolysis (ng/mL), -MMP2; TDCC of SKOV-3 cells with pan T cells (HER2) [ng/mL]	binding result (human CD3ε)
B1	0.332	0.276	–
B2	0.256	0.112	–
B3	0.347	–	–
B4	–	–	no binding
B5	–	–	no binding
B6	–	4.41	–
